{"source": "patent US20110053851A1", "target": "human FXa (human) (UniProt P00742)", "sequence (P00742 41-488 limits assumed)": "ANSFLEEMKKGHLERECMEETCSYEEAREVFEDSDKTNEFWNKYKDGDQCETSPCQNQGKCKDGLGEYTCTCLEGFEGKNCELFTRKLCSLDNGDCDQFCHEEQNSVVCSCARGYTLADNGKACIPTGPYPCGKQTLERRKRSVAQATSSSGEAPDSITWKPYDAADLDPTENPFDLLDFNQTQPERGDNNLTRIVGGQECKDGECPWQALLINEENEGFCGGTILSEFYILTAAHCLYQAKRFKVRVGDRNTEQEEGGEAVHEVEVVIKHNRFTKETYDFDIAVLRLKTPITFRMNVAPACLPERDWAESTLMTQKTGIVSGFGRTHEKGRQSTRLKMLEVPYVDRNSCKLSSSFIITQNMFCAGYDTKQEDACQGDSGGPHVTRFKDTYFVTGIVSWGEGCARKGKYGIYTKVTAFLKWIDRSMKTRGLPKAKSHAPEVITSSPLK", "assay": "cell-based or functional assay", "data": [{"substance": "P. textilis snake venom FV", "values": [{"measurement": "CT (ave) (sec), citrated plasma; Fva 10 (1/10), PL 50, Ca 50", "result": 23.7, "unit": "s"}, {"measurement": "CT (ave) (sec), citrated plasma; Fva 10 (1/100), PL 50, Ca 50", "result": 54.7, "unit": "s"}, {"measurement": "CT (ave) (sec), citrated plasma; Fva 25 (1/10), PL 50, Ca 50", "result": 19.7, "unit": "s"}, {"measurement": "CT (ave) (sec), citrated plasma; Fva 25 (1/100), PL 50, Ca 50", "result": 41, "unit": "s"}, {"measurement": "CT (ave) (sec), citrated plasma; Fva 50 (1/10), PL 0, Ca 50", "result": 67.5, "unit": "s"}, {"measurement": "CT (ave) (sec), citrated plasma; Fva 50 (1/10), PL 50, Ca 50", "result": 18, "unit": "s"}, {"measurement": "CT (ave) (sec), citrated plasma; Fva 50 (1/100), PL 0, Ca 50", "result": 90.8, "unit": "s"}, {"measurement": "CT (ave) (sec), citrated plasma; Fva 50 (1/100), PL 50, Ca 50", "result": 31.6, "unit": "s"}, {"measurement": "CT (ave) (sec), citrated plasma; Fva 50 (1/1000), PL 0, Ca 50", "result": "> 300", "unit": "s"}, {"measurement": "CT (ave) (sec), citrated plasma; Fva 50 (1/1000), PL 50, Ca 50", "result": 68.7, "unit": "s"}, {"measurement": "CT (ave) (sec), citrated plasma; Fva (A280 = 1.080) 10, PL 50, Ca 50", "result": 15, "unit": "s"}, {"measurement": "CT (ave) (sec), citrated plasma; Fva (A280 = 1.080) 25, PL 50, Ca 50", "result": 13.6, "unit": "s"}, {"measurement": "CT (ave) (sec), citrated plasma; Fva (A280 = 1.080) 50, PL 0, Ca 50", "result": 54.3, "unit": "s"}, {"measurement": "CT (ave) (sec), citrated plasma; Fva (A280 = 1.080) 50, PL 50, Ca 0", "result": "> 300", "unit": "s"}, {"measurement": "CT (ave) (sec), citrated plasma; Fva (A280 = 1.080) 50, PL 50, Ca 50", "result": 12.7, "unit": "s"}, {"measurement": "Citrated Plasma Clotting Time (Sec) at FV 0.7 nM (0 nM FV: 151)", "result": 69, "unit": "s"}, {"measurement": "Citrated Plasma Clotting Time (Sec) at FV 7 nM (0 nM FV: 151)", "result": 32, "unit": "s"}, {"measurement": "Citrated Plasma Clotting Time (Sec) at FV 70 nM (0 nM FV: 151)", "result": 18, "unit": "s"}, {"measurement": "Citrated Plasma Clotting Time (Sec) at FV 700 nM (0 nM FV: 151)", "result": 13, "unit": "s"}, {"measurement": "Clotting time (sec) (1), citrated plasma; Fva 10 (1/10), PL 50, Ca 50", "result": 24.1, "unit": "s"}, {"measurement": "Clotting time (sec) (1), citrated plasma; Fva 10 (1/100), PL 50, Ca 50", "result": 53.3, "unit": "s"}, {"measurement": "Clotting time (sec) (1), citrated plasma; Fva 25 (1/10), PL 50, Ca 50", "result": 19.6, "unit": "s"}, {"measurement": "Clotting time (sec) (1), citrated plasma; Fva 25 (1/100), PL 50, Ca 50", "result": 39.5, "unit": "s"}, {"measurement": "Clotting time (sec) (1), citrated plasma; Fva 50 (1/10), PL 0, Ca 50", "result": 68.9, "unit": "s"}, {"measurement": "Clotting time (sec) (1), citrated plasma; Fva 50 (1/10), PL 50, Ca 50", "result": 18.3, "unit": "s"}, {"measurement": "Clotting time (sec) (1), citrated plasma; Fva 50 (1/100), PL 0, Ca 50", "result": 84.3, "unit": "s"}, {"measurement": "Clotting time (sec) (1), citrated plasma; Fva 50 (1/100), PL 50, Ca 50", "result": 32.3, "unit": "s"}, {"measurement": "Clotting time (sec) (1), citrated plasma; Fva 50 (1/1000), PL 0, Ca 50", "result": "> 300", "unit": "s"}, {"measurement": "Clotting time (sec) (1), citrated plasma; Fva 50 (1/1000), PL 50, Ca 50", "result": 69.7, "unit": "s"}, {"measurement": "Clotting time (sec) (1), citrated plasma; Fva (A280 = 1.080) 10, PL 50, Ca 50", "result": 15.2, "unit": "s"}, {"measurement": "Clotting time (sec) (1), citrated plasma; Fva (A280 = 1.080) 25, PL 50, Ca 50", "result": 13.3, "unit": "s"}, {"measurement": "Clotting time (sec) (1), citrated plasma; Fva (A280 = 1.080) 50, PL 0, Ca 50", "result": 54.1, "unit": "s"}, {"measurement": "Clotting time (sec) (1), citrated plasma; Fva (A280 = 1.080) 50, PL 50, Ca 0", "result": "> 300", "unit": "s"}, {"measurement": "Clotting time (sec) (1), citrated plasma; Fva (A280 = 1.080) 50, PL 50, Ca 50", "result": 12.6, "unit": "s"}, {"measurement": "Clotting time (sec) (2), citrated plasma; Fva 10 (1/10), PL 50, Ca 50", "result": 23.4, "unit": "s"}, {"measurement": "Clotting time (sec) (2), citrated plasma; Fva 10 (1/100), PL 50, Ca 50", "result": 56, "unit": "s"}, {"measurement": "Clotting time (sec) (2), citrated plasma; Fva 25 (1/10), PL 50, Ca 50", "result": 19.8, "unit": "s"}, {"measurement": "Clotting time (sec) (2), citrated plasma; Fva 25 (1/100), PL 50, Ca 50", "result": 42.5, "unit": "s"}, {"measurement": "Clotting time (sec) (2), citrated plasma; Fva 50 (1/10), PL 0, Ca 50", "result": 67, "unit": "s"}, {"measurement": "Clotting time (sec) (2), citrated plasma; Fva 50 (1/10), PL 50, Ca 50", "result": 17.6, "unit": "s"}, {"measurement": "Clotting time (sec) (2), citrated plasma; Fva 50 (1/100), PL 0, Ca 50", "result": 97.4, "unit": "s"}, {"measurement": "Clotting time (sec) (2), citrated plasma; Fva 50 (1/100), PL 50, Ca 50", "result": 31, "unit": "s"}, {"measurement": "Clotting time (sec) (2), citrated plasma; Fva 50 (1/1000), PL 0, Ca 50", "result": "> 300", "unit": "s"}, {"measurement": "Clotting time (sec) (2), citrated plasma; Fva 50 (1/1000), PL 50, Ca 50", "result": 67.7, "unit": "s"}, {"measurement": "Clotting time (sec) (2), citrated plasma; Fva (A280 = 1.080) 10, PL 50, Ca 50", "result": 14.8, "unit": "s"}, {"measurement": "Clotting time (sec) (2), citrated plasma; Fva (A280 = 1.080) 25, PL 50, Ca 50", "result": 13.8, "unit": "s"}, {"measurement": "Clotting time (sec) (2), citrated plasma; Fva (A280 = 1.080) 50, PL 0, Ca 50", "result": 54.5, "unit": "s"}, {"measurement": "Clotting time (sec) (2), citrated plasma; Fva (A280 = 1.080) 50, PL 50, Ca 0", "result": "> 300", "unit": "s"}, {"measurement": "Clotting time (sec) (2), citrated plasma; Fva (A280 = 1.080) 50, PL 50, Ca 50", "result": 12.8, "unit": "s"}, {"measurement": "clotting time of re-calcified citrated whole blood with 20 nM APC and 280 nM snake venom FV (no APC: 505 seconds; APC alone: 1333 seconds)", "result": 127, "unit": "s"}]}]}
